In patent US11015206B2, “Compositions and methods comprising sequences having hydroxyphenylpyruvate dioxygenase (HPPD) activity” (PIONEER HI-BRED INTERNATIONAL, INC., priority 2014, dated 2021):

Tests used:
Assay type in all cases: biochemical, Z. mays
[1] = system: 4-hydroxyphenylpyruvate dioxygenase (HPPD); experiment: ON rate ratio: HPPD reaction rate with vs without inhibitor in the 70 to 90 second interval; conditions: for ON Rat. (ON ratio parameter): Megatable 2; for ON rate ratio: Table 7, tembotrione, combinatorial variants
How it was run: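 Indicator of inhibitor on-rate: reaction velocity in the 70 to 90 second window with 4 μM inhibitor divided by that without. Reactions contained 100 μM HPP and 60 or 120 nM HPPD; slower binding gives a larger ratio.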

[2] = system: 4-hydroxyphenylpyruvate dioxygenase (HPPD); experiment: OFF rate ratio: release of inhibitor from pre-formed enzyme-inhibitor complex; conditions: for OFF Rat. (OFF ratio parameter): Megatable 2; for OFF rate ratio: Table 7, tembotrione, combinatorial variants
How it was run: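 Inhibitor release from pre-formed complex (enzyme 7.2 μM, inhibitor 8 μM, 1 h RT) tracked as accelerating HPPD activity at 320 nm over 12 min, coupled via 50 nM HGD with 100 μM HPP at pH 7. OFF rate ratio: steady-state velocity relative to uninhibited initial velocity.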

[3] = system: 4-hydroxyphenylpyruvate dioxygenase (HPPD); experiment: Insensitivity parameter (ON × OFF) and trait fitness (ON × OFF × kcat/KM or × kcat); set-up: key to ON × OFF / Insensitivity, mesotrione, ON × OFF / Insensitivity, tembotrione, ON × OFF / Insensitivity, topramezone, ON × OFF / Insensitivity, sulcotrione, ON × OFF / Insensitivity, isoxaflutole (DKN), ON × OFF: insensitivity = ON rate ratio × OFF rate ratio (surrogate for KD); conditions: for ON × OFF (product of ON ratio and OFF ratio) / ON × OFF kcat (product of ON ratio, OFF ratio and kcat) / Fold vs. wt (ON × OFF versus wild-type SEQ ID NO:1) / Fold vs. wt (ON × OFF × kcat versus wild-type SEQ ID NO:1): Megatable 2; for Fold vs. wt (ON × OFF versus wild-type SEQ ID NO:1): fold of ON × OFF; for Fold vs. wt (ON × OFF × kcat versus wild-type SEQ ID NO:1): fold of ON × OFF × kcat
How it was run: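 Trait fitness combines catalysis and insensitivity as kcat/KM × ON rate ratio × OFF rate ratio. The insensitivity parameter is the product of ON and OFF rate ratios, used in place of KD because the ON rate ratio is inverse.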

[4] = system: 4-hydroxyphenylpyruvate dioxygenase (HPPD); experiment: Estimate of kcat from initial rate at saturating hydroxyphenylpyruvate without inhibitor (ON rate ratio assay)
How it was run: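 kcat was estimated from the initial reaction rate with known enzyme level (60 or 120 nM HPPD). Hydroxyphenylpyruvate was at a saturating 100 μM, with no inhibitor present.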

[5] = Megatable 2, single substitutions, positions numbered per SEQ ID NO:1
[6] = Table 7, tembotrione, combinatorial variants
[7] = Table 7, combinatorial variants

Row | ON Rat. (ON ratio parameter) [1] | OFF Rat. (OFF ratio parameter) [2] | ON × OFF (product of ON ratio and OFF ratio) [3] | Fold vs. wt (ON × OFF versus wild-type SEQ ID NO:1) [3] | ON rate ratio [1] | OFF rate ratio [2] | ON × OFF ([3]; Megatable 3, shuffled variants) | ON × OFF [3, 6] | Molecule | ON × OFF kcat (product of ON ratio, OFF ratio and kcat) [3] | Fold vs. wt (ON × OFF × kcat versus wild-type SEQ ID NO:1) [3] | kcat [4, 5] [s⁻¹] | ON × OFF × kcat ([3]; Megatable 3, shuffled variants) | ON × OFF × kcat [3, 6] | kcat ([4]; Megatable 3, shuffled variants) [s⁻¹] | kcat [4, 7] [s⁻¹]
1 | 0.17 | 0.03 | 0.0051 | 1.00 | – | – | – | – | SEQ ID NO 1 (protein, Zea mays) MGPTPTAAAAGAAVAAASAAEQAAFRLVGHRNFVRFNPRSDRFHTLAFHHVELWCADAASAAGRFSFGLGAPLAARSDLSTGNSAHASLLLRSGSLSFLFTAPYAHGADAATAALPSFSAAAARRFAADHGLAVRAVALRVADAEDAFRASVAAGARPAFGPVDLGRGFRLAEVELYGDVVLRYVSYPDGAAGEPFLPGFEGVASPGAADYGLSRFDHIVGNVPELAPAAAYFAGFTGFHEFAEFTTEDVGTAESGLNSMVLANNSENVLLPLNEPVHGTKRRSQIQTFLDHHGGPGVQHMALASDDVLRTLREMQARSAMGGFEFMAPPTSDYYDGVRRRAGDVLTEAQIKECQELGVLVDRDDQGVLLQIFTKPVGDRPTLFLEIIQRIGCMEKDEKGQEYQKGGCGGFGKGNFSQLFKSIEDYEKSLEAKQAAAAAAAQGS | 1.07 | 1.00 | 3.5 | – | – | – | –
2 | – | – | – | – | 0.752 | 0.248 | 0.186 | 0.186 | P056028-G-04 (protein, Zea mays variant form created by artificial means.) MGPTPTATAAGAAVAAASAAEQAAFRLVGHRNFVRFNPRSDRFQTLAFHHVELWCADAASAAGRFSFALGVPLAARSDLSTGNSAHASLLLRSGSLSLLFTAPYAHGADAATAALPSFSAAAARRFAADHGLAVRAVALRVADAEDAFRASVAAGARPAFGPVDLGRGFRLAEVELYGDVVLRYVSYPDGAAGEPFLPGFEGVASPGAADLGLSRFDHIVGNVPELAPAAAYMAGFTGFHEFAEFTTEDVGTTESGLNSMALANNSENVLLPLNEPVHGTKRRSQIQTFLDHHGGPGVQHIALASDDVLRTLREMRARSAMGGFEFLPPPLSDYYDGVRRCAGDVLTEAQINECQELGVMVDRDDEGVLLQIFTKPVGDRPTFFIELIQRIGCMEKDEKGQEYQKGGCGGFGKGNFGQLFKSIEDYEKSLEAKQAAAAATAQGS | – | – | – | 2.54 | 2.54 | 0.227 | 0.227
3 | – | – | – | – | 0.725 | 0.382 | 0.277 | 0.277 | P056028-G-06 (protein, Zea mays variant form created by artificial means.) MGPTPTATAAGAAVAAASAAEQAAFRLVGHRNFVRFNPRSDRFQTLAFHHVELWCADAASAAGRFSFALGVPLAARSDLSTGNSAHASLLLRSGSLSLLFTAPYAHGADAATAALPSFSAAAARRFAADHGLAVRAVALRVADAEDAFRASVAAGARPAFGPVDLGRGFRLAEVELYGDVVMRYVSYPDGAAGEPFLPGFEGVASQGAADYGLNRFDHIVGNVPELAPAAAYMAGFTGFHEFAEFTTEDVGTTESGLNSMALANNSENVLLPLNEPVHGTKRRSQIQTFLDHHGGPGVQHIALASDDVLRTLREMRARSAMGGFEFLPPPLSDYYDGVRKCAGDVLTEAQINECQELGVMVDRDDEGVLLQIFTKPVGDRPTFFLELIQRIGCMEKDEKGQEYQKGGCGGFGKGNFGQLFKSIEDYEKSLEAKQAAAAATAQGS | – | – | – | 3.30 | 3.30 | 0.2 | 0.2
4 | – | – | – | – | 0.739 | 0.361 | 0.267 | 0.267 | P056028-G-05 (protein, Zea mays variant form created by artificial means.) MGPTPTATAAGAAVAAASAAEQAAFRLVGHRNFVRFNPRSDRFQTLAFHHVELWCADAASAAGRFSFALGVPLAARSDLSTGNSAHASLLLRSGSLSLLFTAPYAHGADAATAALPSFSAAAARRFAADHGLAVRAVALRVADAEDAFRASVAAGARPAFGPVDLGRGFRLAEVELYGDVVLRYVSYPDGGAGEPFLPGFEGVASQGAADLGLNRFDHIVGNVPELAPAAAYMAGFTGFHEFAEFTTEDVGTTESGLNSMALANNSENVLLPLNEPVHGTKRRSQIQTFLDHHGGPGVQHIALASDDVLRTLREMRARSAMGGFEFLPPPLSDYYDGVRKCAGDVLTEAQINECQELGVMVDRDDEGVLLQIFTKPVGDRPTFFIEIIQRIGCMEKDEKGQEYQKGGCGGFGKGNFQQLFKSIEDYEKSLEAKRAAAAATAQGS | – | – | – | 4.47 | 4.47 | 0.278 | 0.278
5 | – | – | – | – | 0.702 | 0.304 | 0.213 | 0.213 | P056028-G-07 (protein, Zea mays variant form created by artificial means.) MGPTPTATAAGAAVAAASAAEQAAFRLVGHRNFVRFNPRSDRFQTLAFHHVELWCADAASAAGRFSFALGVPLAARSDLSTGNSAHASLLLRSGSLSLLFTAPYAHGADAATAALPSFSAAAARRFAADHGLAVRAVALRVADAEDAFRASVAAGARPAFGPVDLGRGFRLAEVELYGDVVLRYVSYPDGAAGEPFLPGFEGVASQGAADYGLSRFDHIVGNVPELAPAAAYMAGFTGFHEFAEFTTEDVGTTESGLNSMALANNSENVLLPLNEPVHGTKRRSQIQTFLDHHGGPGVQHIALASDDVLRTLREMRARSAMGGFEFLPPPLSDYYDGVRKCAGDVLTEAQINECQRLGVMVDRDDEGVLLQIFTKPVGDRPTFFLEIIQRIGCMEKDEKGQEYQKGGCGGFGKGNFGQLFKSIEDYEKSLEAKQAAAAATAQGS | – | – | – | 3.23 | 3.23 | 0.255 | 0.255
6 | 0.74 | 0.21 | 0.15 | 30.0 | – | – | – | – | SEQ ID NO 2 (protein, Zea mays variant form created by artificial means.) MGPTPTATAAGAAVAAASAAEQAAFRLVGHRNFVRFNPRSDRFQTLAFHHVELWCADAASAAGRFSFALGVPLAARSDLSTGNSAHASLLLRSGSLSLLFTAPYAHGADAATAALPSFSAAAARRFAADHGLAVRAVALRVADAEDAFRASVAAGARPAFGPVDLGRGFRLAEVELYGDVVLRYVSYPDGAAGEPFLPGFEGVASPGAADYGLSRFDHIVGNVPELAPAAAYMAGFTGFHEFAEFTTEDVGTTESGLNSMALANNSENVLLPLNEPVHGTKRRSQIQTFLDHHGGPGVQHIALASDDVLRTLREMRARSAMGGFEFLPPPLSDYYDGVRRCAGDVLTEAQINECQELGVMVDRDDQGVLLQIFTKPVGDRPTFFLEIIQRIGCMEKDEKGQEYQKGGCGGFGKGNFGQLFKSIEDYEKSLEAKQAAAAATAQGS | 5.25 | 4.90 | 0.57 | – | – | – | –
7 | – | – | – | – | 0.737 | 0.379 | 0.279 | 0.279 | P056028-G-08 (protein, Zea mays variant form created by artificial means.) MGPTPTATAAGAAVAAASAAEQAAFRLVGHRNFVRFNPRSDRFQTLAFHHVELWCADAASAAGRFSFALGVPLAARSDLSTGNSAHASLLLRSGSLSLLFTAPYAHGADAATAALPSFSAAAARRFAADHGLAVRAVALRVADAEDAFRASVAAGARPAFGPVDLGRGFRLAEVELYGDVVLRYVSYPDGAAGEPFLPGFEGVASPGAADLGLSRFDHIVGNVPELAPAAAYMAGFTGFHEFAEFTTEDVGTTESGLNSMALANNSENVLLPLNEPVHGTKRRSQIQTFLDHHGGPGVQHIALASDDVLRTLREMRARSAMGGFEFLPPPLSDYYDGVRKCAGDVLTEAQINECQKLGVMVDRDDEGVLLQIFTKPVGDRPTFFLEIIQRIGCMEKDEKGQEYQKGGCGGFGKGNFGQLFKSIEDYEKSLEAKQAAAAATAQGS | – | – | – | 3.29 | 3.29 | 0.197 | 0.197
8 | – | – | – | – | 0.716 | 0.385 | 0.275 | 0.275 | P056028-G-09 (protein, Zea mays variant form created by artificial means.) MGPTPTATAAGAAVAAASAAEQAAFRLVGHRNFVRFNPRSDRFQTLAFHHVELWCADAASAAGRFSFALGVPLAARSDLSTGNSAHASLLLRSGSLSLLFTAPYAHGADAATAALPSFSAAAARRFAADHGLAVRAVALRVADAEDAFRASVAAGARKAFGPVDLGRGFRLAEVELYGDVVLRYVSYPDGAAGEPFLPGFEGVASPGAADYGLSRFDHIVGNVPELAPAAAYMAGFTGFHEFAEFTTEDVGTTESGLNSMALANNSENVLLPLNEPVHGTKRRSQIQTFLDHHGGPGVQHIALASDDVLRTLREMRARSAMGGFEFLPPPLSDYYDGVRRCAGDVLTEAQINECQELGVMVDRDDEGVLLQIFTKPVGDRPTFFLEIIQRIGCVEKDEKGQEYQKGGCGGFGKGNFGQLFKSIEDYEKSLEAKQAAAAATAQGS | – | – | – | 4.37 | 4.37 | 0.263 | 0.263
